Experiment: yeast display, Sf9 membrane polyspecificity reagent, FACS + sequencing; frameworks hold sequencing errors
Outline: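 Galactose-induced (36–48 hours) yeast carrying a synthetic nanobody display library were exposed to 10% biotinylated, detergent-solubilized Sf9 membrane reagent at 4 °C for 1 hour. FACS followed streptavidin microbead enrichment, using low and high (top ~1%) gates for expression (anti-HA) and reagent binding (streptavidin). Colony PCR, MiSeq 2 × 250 sequencing and CDR-length filtering followed. Labels for polyreactivity reflect the gate of origin.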

Row | Sequence | polyreactivity (PSR sort gate)
1 | QVQLLESGGGLVQAGGSLRLTCAASGRTFYRNAMGWYRPAPGKERELVAAISSGGSTTYADSVKGRFTISRDNAKNTVYLQMNSLKPEDTAVYYCAARSHAGSVSPRLKEYDYWGQGTQVTVSS | low polyreactivity
2 | QVQLLESGGGLVQAGGSLSLTCAASGSTFTRYVMGWYRQAPGTETELVAAISSNGGRTYYADSVKGRFTISRDNAKNTVDLQMTSLKPEDTAVYYCNLVRYAYNASVVYWGQGTQVTVSS | high polyreactivity
3 | QVQLLESGGGLVQAGGTLRLSCAASGRTFYVNAMGWYRQAPGKERELVAAIRRGGSPNYADSVKGRFTISRDNEQNTVYLQMNSLKPEDTAVFYCNASPCGRKQYISPYDYRGQGTQVTVSS | low polyreactivity
4 | QVQLLESGGGLVQAGGTLRLSCSASGGIFVNYAMGWYRQAPGKERELVAAISRSGGSTYYADSVKGRFTISRDNAKNTVYLQLNSLKPEVTAVYYCNAVLQKYRFEYDYWGQGSQVTVSS | high polyreactivity
5 | QVQLLESGGGLVQAGVSLRLSCAASGRIFPYNAMGRYRQAAGKVREFVAAIYYSGGRTYYADSVKGRFTITRDNAKNTVYIQMNSLKPEDTAVYFCDISRYDYTKTEGGYWGQGTQVTVSS | low polyreactivity
6 | QVQLLESGGGLVQSGGSLRLSCAASGFIFYSYAMGGYRQAPGKERELVAAITEDGDSTYYADSVKWRFTISRDNAKNTVYLQMNSLNPEDTAGYYCNTDLTFNGTSGAYDYWGQGTQVTVSS | low polyreactivity
7 | QVQLLESGGRLVQAGGSLRLSCAPSGFIFISYALGWYRQAPGKERELDAAIDWRGGSSTYYADSVKGRFTISRDNAKNTVYFPMISLKPEDTAVYYCAAEGVTWYLWDFYDFYGYWGQGTQVTVSS | high polyreactivity
8 | QVQLLESGGRLVQAGGSLRLSCMASGSILGDRMSWYRQAPGKEHELVATIYDGGITYYADSMKGRFTISRDNAKNTVYLQMNSLRPEDTAVYYCGASFEGYRYHVYCGQGTQVTVSS | low polyreactivity
9 | QVQLLESRGGLVQAGGSLRLSCAASGRTIYTYAMGWYRQAPRTVRELVAAITYRGGNTYYADSVKGRFTISRDNAKYTVYLQMNSLKAEDTAVYDCIRRVAYLSGYSYDYWGQGTQVTVSS | high polyreactivity
10 | QVQLLESVGGLVQAGGSLRLSCAASGRIFGSNAMGWYRQAPGKERELVAAITRGGSTNYADSVKGRFTISRDNAKNTVYLQMNSLKPEDTAVYYCAVRWYRKYNYWGQGTQVTVSS | high polyreactivity
11 | QVQLLESVGGLVQAGGSLRLSCAASGRTFSRYAMGSYRQAPGKERELVATISSSGGTTYYADSVKGRFTISRDNAKNTVYLQMNSLKPEDTAVYYCNAESKKRTHASGYDYWGHGTQVTVSS | low polyreactivity
12 | QVQLLETGGGLVQAGGSLRLSCAASGLIFYYNVMGWYIQAPGKERELVASISYSSTRTYYADSVKGRFTISRDNAKNTVYLQMNSLKPEDTAVYYCNAVIRNSWIRGYWGQGTQVTVSS | low polyreactivity
13 | QVQLLETGGGLVQAGGSLRLSCAPSGSIFDSYAMGWYRQAPGKERELVATINTSGGSTYYADSVKGRFTIHDNAKNTVYLQMNSLKPEDTAVYYCNAGRWDYWQNNFGDYGYWGQGTQVTVSS | low polyreactivity
14 | QVQLLETGGGLVQAGGSLRLSFAASGSIFYRYSMVWYRQAPGKERELVAAISYSGGSTYYADSVKGRFTISRDNAKNTVYLQMNSLKPEDTAVYYCAKDYPPPISDYSRYYGYGYWGQGTQVTVSS | low polyreactivity
15 | QVQLLETGGGLVQAGRSLRLSCAASGFIFRANAMGWYRQAPGNERELVATISRSGGSTSYADSVKGRFTISRDNAKNTVYLQMNSLKPEDTAVYYCNKRTPYLRPILDYWGQGSQVTVSS | high polyreactivity
16 | QVQLLETGGGLVQAGVSLRLSSAASGRTFWTNGMGWYRQAPGKERELVASISTSGGRTYYADSVKGRFTISRDNSKNTVYLQMNSLKPEDTAVYYCAARALSHGARYDYWGQGTQVNVSS | high polyreactivity
17 | QVQLQDSGGGLVQAGGSLRLSCAASGTISDRAGMGWYRQAPAQNAIVATIDRGTNTNYADSVKGRFTISRDNAKNTVYLQMNSLKPEDTAVYNCAADGRYYIYLDYWGQGTQVTVSS | low polyreactivity
18 | QVQLQDSGGGLVQAGGSLRLSCAASGYIFGSGSMGWFRQAPGKERELVATINNGSSTYYADSVKGRFTISRDNAINTVYLQMNSLKPEDTAVYYCAAVRIRPLRYYYWGQGTQVTVSS | high polyreactivity
19 | QVQLQDSGVGLVQAGGSLRLSCAASGTISYRYRMGSYRQAPRKELELVAGISFGSITYNADSVKGRFTISRDNAKNTVYLQMNSLKPEDIAVYYCAVYQKSYRFFPYWGQGTQVTVSS | high polyreactivity
20 | QVQLQECGCGLVQAGCSLRLSCAASGTFSNSLKWLYCQAPGKEREFVATIGVGGSTNYADSVKGRFTISRDNAKNTVYLQMNSLKPEDTAVYYCAARLDTVTDYYYWGQGTQVTVSS | low polyreactivity
21 | QVQLQECGGALVQAGGSLRLSCAASGTFSNSEKWLYCQAPGKERELVSTIGVGGSTNYADSVKGRFTISRDNAKNTVYLQLNSLKPEDTAVYHCAAYGAASYFHYYRGQGTQVTVSS | low polyreactivity
22 | QVQLQECGGGLVQAGGSLRLSCAARGNIFDADIMGWYRQAPGKESELLASVTDGGSTNYADSVKGRFTISRDNAKNTVYLQMNSLKPEDSAVYYCAAIVYPDILTYFDYDYDYFYWGQGTQVTVGS | low polyreactivity

Row | Sequence | polyreactivity (PSR sort gate)
23 | QVQLQEGGGGLVQAGGSLRLSCAASGYISYGDDMGWYRQAPGEERELVASIGLDATTNYADSVKGRFTISRDNAKITVYLQMNSLKPEDTAVYYCAADVGSGVLCGYWGQGTQMTVSS | high polyreactivity
24 | QVQLQEGGGGQVQAGGSLRLSCAASGYITNGDVMGWSRQAPGEERELVASSGLDATTNYADSVKGRFTISRDNAKMTVYLQMNSLKPEDTAVYYCAADVGSGVLCGYWGQGTQMTVSS | high polyreactivity
25 | QVQLQEIGGGLVQAGGSLRQSYAASGYIFPSLAMGWYRQAQGKEREFVAAIGRGSTNNYADSVKGRFTISRDNAKNTAYQQMNSLKPEDTAVYYCAVVQRSKRTYPWYDYWGQGTQVTVSS | low polyreactivity
26 | QVQLQERGDGLGQAVGSLRLSCAASGYISGYYYLGWYRQAPGKEGVVVAGIDAFGSRTNFADCVKGRFTISRDNAKNPVDLQMNSLKPEETAVYYCAARPDGDRLFSYWGQGPQVTVSS | low polyreactivity
27 | QVQLQERGGGLVQAGGSLRLSCAASGIIYADGFMGLYRQAPGKEREFVATITGGGTSNYADSVKGRFTISRDNAKNTVYLQMNSLKPEDTAVYYCAVYFAWTIGFTYLGQGTQVTVSS | high polyreactivity
28 | QVQLQERGVGLVQAGGTISLGYDMVWYRQAPGKEREFVAGIDTCAITYYADSVKGRFTNSRDNAKNTVYLQMNILNPEDTAVYYCAANQTHTYAHSYWGQGTQVTVSS | high polyreactivity
29 | QVQLQESAAGLVQAGGSLRMSCAASGNIFDADIMGWYRQEPGKERELVASITDGRRTNYADSVKGRYTISRDSEKNTVYLQMNSLKPEDTAVYYCAAIAYPVVPTYFDYDSDYFHWGQGTQVTVSS | high polyreactivity
30 | QVQLQESAGGLVQAGGSLRLRCSASGYISCDASMGWNRQAPGKERELAASITKGSSTNYADSVKGRFTIRDNAKNTVYLQMNSLKPEDTAVCYCAVTYPYWGDYTYWGQGTQVTVSR | low polyreactivity
31 | QVQLQESAGGLVQAGGSLRLRCSASGYISCDASMGWYRQAPGKERELAASITKGSSTNYADSVKGRFTIRDNAKNTVYLQMNSLKPEDSAVCYCAVTYPYWGDYTYWGQGTQVTVSS | low polyreactivity
32 | QVQLQESAGGLVQAGGSLRLRCSASGYISCDASMGWYRQAPRKERELAASITKGSSTNYADSVKGRFTIRDNAKNSVYLQMNSLKPEDTAVFYCAVTYPYWGDYTYWGQGTQVTVSS | low polyreactivity
33 | QVQLQESAGGLVQAGGSLRLRFSASAYNSCDASMGWYSQAPGKERELSASISKGSSTNYADSVKGRFTIRDNAKNSVYLQMNSLKPEVTAVCYCAVTYPYWGDYTYWGQGTQVSVSS | low polyreactivity
34 | QVQLQESAGGMVQAGGSLRLRCSASGYISCDASMGWYRQAPGKERELAASITKGSRTNYADSVKGRFTIRDNAKNTVYLQMNSLKPEVTAVCYCAVTYPYWGDYTYWGQGTQVTVSS | low polyreactivity
35 | QVQLQESCGGLVQAGGSLRLSCAASGTIFRFRYMAWHRQAPGKERELVAGINGGTTTYYADSVIGLFTISRDNAKNTVYLQMNSLKPDDTAVYNCAAGASRLTYYDYWGQGTQVTVIS | low polyreactivity
36 | QVQLQESGDGLVQAGGSLRLSSAASGTIFSDYGMGGYRQAPGKERELLAGISDGCNTNYTDSVKGRFTISRDNAHRVSADEQPETGGYRGVLLRGSERWLLFYVYWGQGTQVTVSS | high polyreactivity
37 | QVQLQESGDGLVQAVGSLRLSCAASGYISGYYYMGWYRQAPGKERELVAGIDAFGSSTNYADCVKGRFTIRRDNAKNTVYLLMNSPKPEDTAVFYCAAEFDDWDYHWYWGQGTQVTVSS | low polyreactivity
38 | QVQLQESGDGLVQAVGSLRLSCAASGYISGYYYMGWYRQAPGKERELVAGIDAFGSSTNYADCVKGRLTISRDNAKNTVYLQMNSPKPEDTAVYYCAAEYDDWDYHWYWGQGTQVTVSS | low polyreactivity
39 | QVQLQESGGALVQAGGSLRLSCAASGYISAGRQMGWYRQAPGKELEFVATINGGATTNYADSVKGRFTISRDNAKNSVYLQMNSLKPEDTAVYYCAAVIWYVQDYTYWGQGAQVTVSS | high polyreactivity
40 | QVQLQESGGCLVQADGSLRLSCAASGSIFGYYYMGWYRQAPGKDRELVATINICGITNYADSVKGRFTISRDNAKNTVYLQMNSLKPDDTAVYYCAADEYAQRDLGYWGQGTQVTVSS | low polyreactivity
41 | QVQLQESGGDLEQAGGSLLLSCTASGTISEVRVMGWYRQAPGKERELVATISYVTITYYADSVKGRFTISRDSEKHRVSADDEPQTGRYRGVLLSYYWGLGTQVTVSS | low polyreactivity
42 | QVQLQESGGDLVQAGGSLRLSCAASGTIYGLTSMGSYRQRPGKEREFVAAITDGGNTNYADSVKGRFTISRDNAKNTVYLQMISLKPDETAVYYWAVLFSDDAYYAYWGQGTQVTVSS | low polyreactivity
43 | QVQLQESGGGLAQAGGSLRLSCAASGNIFDADIMGWYRKAPGKERELVGSITDGGSTNYVDSVKGRFTISRDNAKNTVHLQMNSLKPEDTAVYYCAAIAYPEIPTYFDYDSDCFNWGHGTQVTVSS | high polyreactivity

From the nanobody polyreactivity screen of Harvey et al. (2022)
